Assays:
HLA-A*02:03 [1] = assay: IEDB peptide-MHC binding, purified MHC/direct/fluorescence; filed as Kd, often an IC50 or EC50 that approximates it; ≥ and ≤ were set here for values at or beyond the usual limits of such assays
HLA-B*18:01 = assay: as above; details: source organism: Cryptosporidium parvum Iowa II
HLA-A*02:11 = assay: as above; details: source organism: Cryptosporidium parvum Iowa II
HLA-B*15:17 = assay: as above; details: source organism: Cryptosporidium parvum Iowa II
HLA-B*57:01 = assay: as above; details: source organism: Cryptosporidium parvum Iowa II
HLA-B*46:01 = assay: as above; details: source organism: Cryptosporidium parvum Iowa II
HLA-B*27:03 = assay: as above; details: source organism: Cryptosporidium parvum Iowa II
HLA-A*02:12 = assay: as above
HLA-A*03:01 = assay: as above; details: source organism: Cryptosporidium parvum Iowa II
HLA-A*02:16 = assay: as above; details: source organism: Cryptosporidium parvum Iowa II
HLA-A*68:02 [2] = assay: as above; details: source organism: Cryptosporidium parvum Iowa II
HLA-A*24:03 = assay: as above; details: source organism: Cryptosporidium parvum Iowa II
HLA-A*26:01 [3] = assay: as above; details: source organism: Cryptosporidium parvum Iowa II
HLA-B*39:01 = assay: as above; details: source organism: Cryptosporidium parvum Iowa II
HLA-B*51:01 = assay: as above; details: source organism: Cryptosporidium parvum Iowa II
HLA-A*69:01 = assay: as above
HLA-A*02:19 = assay: as above; details: source organism: Cryptosporidium parvum Iowa II
HLA-B*15:01 = assay: as above; details: source organism: Cryptosporidium parvum Iowa II
HLA-B*15:42 = assay: IEDB peptide-MHC binding, purified MHC/competitive/fluorescence; filed as Kd, often an IC50 or EC50 that approximates it; ≥ and ≤ were set here for values at or beyond the usual limits of such assays; details: source organism: Homo sapiens
HLA-B*45:06 = assay: as above; details: source organism: Homo sapiens
HLA-B*83:01 = assay: as above; details: source organism: Homo sapiens
HLA-B*73:01 = assay: IEDB peptide-MHC binding, purified MHC/direct/fluorescence; filed as Kd, often an IC50 or EC50 that approximates it; ≥ and ≤ were set here for values at or beyond the usual limits of such assays; details: source organism: Homo sapiens
HLA-C*06:02 = assay: as above
HLA-C*14:02 = assay: as above; details: source organism: Human immunodeficiency virus 1
HLA-C*15:02 = assay: as above; details: source organism: Human immunodeficiency virus 1
HLA-A*30:01 = assay: IEDB peptide-MHC binding, purified MHC/competitive/fluorescence; filed as Kd, often an IC50 or EC50 that approximates it; ≥ and ≤ were set here for values at or beyond the usual limits of such assays; details: source organism: Human immunodeficiency virus 1
HLA-A*02:03 [4] = assay: as above; details: source organism: Human immunodeficiency virus 1
HLA-A*02:01 = assay: as above; details: source organism: Human immunodeficiency virus 1
HLA-A*26:02 = assay: as above; details: source organism: Human immunodeficiency virus 1
HLA-B*08:01 = assay: as above; details: source organism: Human immunodeficiency virus 1
HLA-A*02:06 = assay: as above; details: source organism: Human immunodeficiency virus 1
HLA-B*07:02 = assay: as above; details: source organism: Human immunodeficiency virus 1
HLA-A*68:02 [5] = assay: as above; details: source organism: Human immunodeficiency virus 1
HLA-A*26:01 [6] = assay: as above; details: source organism: Human immunodeficiency virus 1
HLA-B*15:09 = assay: as above; details: source organism: Human immunodeficiency virus 1
[7] = source organism: Cryptosporidium parvum Iowa II
[8] = source organism: Mycobacterium tuberculosis str. Haarlem

Q: With ILTRLALFF as the sequence, how does the Kd (HLA-A*02:03 [1]; [7]) read?
A: ≥ 20 µM

Q: What about the Kd (HLA-B*18:01) of the same sequence?
A: ≥ 20 µM

Q: And the Kd (HLA-A*02:11)?
A: ≥ 20 µM

Q: What about the Kd (HLA-B*15:17) of the same sequence?
A: ≥ 20 µM

Q: And the Kd (HLA-B*57:01)?
A: ≥ 20 µM

Q: And the Kd (HLA-B*46:01)?
A: ≥ 20 µM

Q: And the Kd (HLA-B*27:03)?
A: ≥ 20 µM

Q: And the Kd (HLA-A*02:12; [7])?
A: ≥ 20 µM

Q: And the Kd (HLA-A*03:01)?
A: ≥ 20 µM

Q: What about the Kd (HLA-A*02:16) of the same sequence?
A: ≥ 20 µM

Q: And the Kd (HLA-A*68:02 [2])?
A: ≥ 20 µM

Q: And the Kd (HLA-A*24:03)?
A: ≥ 20 µM

Q: And the Kd (HLA-A*26:01 [3])?
A: ≥ 20 µM

Q: What about the Kd (HLA-B*39:01) of the same sequence?
A: ≥ 20 µM

Q: And the Kd (HLA-B*51:01)?
A: ≥ 20 µM

Q: What about the Kd (HLA-A*69:01; [7]) of the same sequence?
A: ≥ 20 µM

Q: And the Kd (HLA-A*02:19)?
A: ≥ 20 µM

Q: What about the Kd (HLA-B*15:01) of the same sequence?
A: ≥ 20 µM

Q: What does the source list for YEHYFVFAA?
A: Kd (HLA-B*15:42): ≥ 5 µM; Kd (HLA-B*45:06): 0.379 µM; Kd (HLA-B*83:01): ≥ 5 µM; Kd (HLA-B*73:01): 0.0226 µM

Q: Which results are given for YLYDETQDV?
A: Kd (HLA-A*02:03 [1]; [8]): 0.002 µM; Kd (HLA-C*06:02; source organism: Mycobacterium tuberculosis variant bovis BCG str. Pasteur 1173P2): 0.041 µM; Kd (HLA-A*02:12; [8]): 0.006 µM; Kd (HLA-A*69:01; source organism: Mycobacterium tuberculosis): 1.24 µM

Q: What does the source list for RMYSPVSIL?
A: Kd (HLA-C*14:02): 0.701 µM; Kd (HLA-C*06:02; source organism: Human immunodeficiency virus 1): 3.11 µM; Kd (HLA-C*15:02): 0.686 µM

Q: How did the Kd (HLA-A*30:01) turn out when EIKSLFNTI was run?
A: ≥ 20 µM

Q: What about the Kd (HLA-A*02:03 [4]) of the same sequence?
A: ≥ 20 µM

Q: And the Kd (HLA-A*02:01)?
A: ≥ 20 µM

Q: And the Kd (HLA-A*26:02)?
A: ≥ 20 µM

Q: What about the Kd (HLA-B*08:01) of the same sequence?
A: 1.62 µM

Q: What about the Kd (HLA-A*02:06) of the same sequence?
A: 0.0617 µM

Q: What about the Kd (HLA-B*07:02) of the same sequence?
A: 6 µM

Q: And the Kd (HLA-A*68:02 [5])?
A: 0.036 µM

Q: And the Kd (HLA-A*26:01 [6])?
A: ≥ 20 µM

Q: What about the Kd (HLA-B*15:09) of the same sequence?
A: ≥ 20 µM
